B1: LEN immunoglobulin light chain variable domain (kappa 4), recombinant (domain or fragment)
VL: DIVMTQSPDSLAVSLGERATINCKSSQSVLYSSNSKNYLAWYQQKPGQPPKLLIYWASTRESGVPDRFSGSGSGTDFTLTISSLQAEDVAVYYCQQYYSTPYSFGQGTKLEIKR
notes: 114 amino acid kappa 4 light chain variable domain of the Bence Jones protein LEN, from a patient with multiple myeloma; The C-terminal Lys-His8 of pOPINO was removed by a premature stop codon; removal of the ompA leader was confirmed by mass spectrometry, so the protein has no added residues; also called VL LEN; source: E. coli C41 (DE3), periplasmic expression, osmotic shock, purified …
B2: SMA immunoglobulin light chain variable domain (kappa 4), recombinant (domain or fragment)
VL: not shown
notes: 114 amino acid kappa 4 light chain variable domain SMA, first extracted as amyloid fibrils from a patient with AL amyloidosis; The C-terminal Lys-His8 of pOPINO was removed by a premature stop codon; the ompA leader is cleaved; also called VL SMA; source: E. coli C41 (DE3), periplasmic expression, osmotic shock, purified (isoelectric precipitation, cation exchange, SEC); not shown: ompA leader …

Biological target: the molecule itself
Assay: SEC-MALS; 1.0 mg/mL protein on HiLoad 16/60 Superdex 75 in 10 mM Tris-HCl pH 7.5, 150 mM NaCl, 0.75 mL/min, 25 °C; monomer to dimer

Row | Protein | stoichiometry N
1 | B1 | 2
2 | B2 | 2
